In publication PMC6555819, “Comprehensive study of nuclear receptor DNA binding provides a revised framework for understanding receptor specificity”:

Experiments:
FXR:RXRa = FXR:RXRa (Homo sapiens, UniProt Q96RI1;P19793 full;full); assay: no ligand; PBM; 270 nM : 90 nM RXRa; PBS pH 7.4, 2% milk, 0.02% Triton X-100, 1 mM DTT, BSA, 0.4 mg/ml salmon testes DNA; conditions: tags: His kept;His cleaved; copies: 1;1; label: surface-attached array probe
In short: (§1)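 Scanned fluorescence from custom Agilent 4×180K protein-binding microarrays was regression-normalized. Binding z-scores use random background probes as reference. Ligand-free nuclear receptor dimers were incubated on the arrays for 1 h and detected with antibodies against each partner (one per run).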

LXRa:RXRa = LXRa:RXRa (Homo sapiens, UniProt Q13133;P19793 full;full); assay: as above; conditions: tags: His kept;His cleaved; copies: 1;1; label: surface-attached array probe
In short: as §1

PXR:RXRa = PXR:RXRa (Homo sapiens, UniProt O75469;P19793 full;full); assay: as above; conditions: tags: His kept;His cleaved; copies: 1;1; label: surface-attached array probe
In short: as §1

RXRa = RXRa (Homo sapiens, UniProt P19793); assay: no ligand; PBM; 180 nM; PBS pH 7.4, 2% milk, 0.02% Triton X-100, 1 mM DTT, BSA, 0.4 mg/ml salmon testes DNA; conditions: tags: His cleaved; chain copies: 2; label: surface-attached array probe
VDR:RXRa = VDR:RXRa (Homo sapiens, UniProt P11473;P19793 full;full); assay: no ligand; PBM; 270 nM : 90 nM RXRa; PBS pH 7.4, 2% milk, 0.02% Triton X-100, 1 mM DTT, BSA, 0.4 mg/ml salmon testes DNA; conditions: tags: His kept;His cleaved; copies: 1;1; label: surface-attached array probe
In short: as §1

RARb:RXRa = RARb:RXRa (Homo sapiens, UniProt P10826;P19793 full;full); assay: as above; conditions: tags: His kept;His cleaved; copies: 1;1; label: surface-attached array probe
In short: as §1

RARg:RXRa = RARg:RXRa (Homo sapiens, UniProt P13631;P19793 full;full); assay: as above; conditions: tags: His kept;His cleaved; copies: 1;1; label: surface-attached array probe
In short: as §1

LXRb:RXRa = LXRb:RXRa (Homo sapiens, UniProt P55055;P19793 full;full); assay: as above; conditions: tags: His kept;His cleaved; copies: 1;1; label: surface-attached array probe
In short: as §1

RARg:RXRa, sequence (P13631 whole entry, chain 1 of 2): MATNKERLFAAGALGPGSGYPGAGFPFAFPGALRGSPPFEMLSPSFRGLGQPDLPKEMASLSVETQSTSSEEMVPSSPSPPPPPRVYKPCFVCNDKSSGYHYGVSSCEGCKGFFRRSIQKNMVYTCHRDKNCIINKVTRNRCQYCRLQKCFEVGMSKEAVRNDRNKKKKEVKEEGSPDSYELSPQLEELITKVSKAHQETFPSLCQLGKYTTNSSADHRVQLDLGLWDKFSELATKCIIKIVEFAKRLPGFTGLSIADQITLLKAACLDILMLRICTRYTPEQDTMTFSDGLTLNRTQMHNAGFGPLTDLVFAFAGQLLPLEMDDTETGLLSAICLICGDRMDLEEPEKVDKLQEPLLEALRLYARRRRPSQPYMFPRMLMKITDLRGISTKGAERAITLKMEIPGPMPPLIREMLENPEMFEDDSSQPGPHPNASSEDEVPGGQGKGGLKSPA
RARg:RXRa, sequence (P19793 whole entry, chain 2 of 2): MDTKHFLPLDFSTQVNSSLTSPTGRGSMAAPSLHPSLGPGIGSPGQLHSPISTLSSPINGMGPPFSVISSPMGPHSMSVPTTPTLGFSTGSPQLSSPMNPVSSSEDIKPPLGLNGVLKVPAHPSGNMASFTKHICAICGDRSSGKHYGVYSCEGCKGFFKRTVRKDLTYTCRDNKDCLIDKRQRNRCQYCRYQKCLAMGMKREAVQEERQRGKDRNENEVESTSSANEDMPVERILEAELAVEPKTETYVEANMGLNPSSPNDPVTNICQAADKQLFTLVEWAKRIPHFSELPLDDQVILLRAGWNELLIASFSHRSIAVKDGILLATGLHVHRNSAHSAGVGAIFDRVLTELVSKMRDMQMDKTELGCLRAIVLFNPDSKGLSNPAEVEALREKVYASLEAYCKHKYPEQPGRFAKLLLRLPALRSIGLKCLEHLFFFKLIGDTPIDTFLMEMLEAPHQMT
PXR:RXRa, sequence (O75469 whole entry, chain 1 of 2): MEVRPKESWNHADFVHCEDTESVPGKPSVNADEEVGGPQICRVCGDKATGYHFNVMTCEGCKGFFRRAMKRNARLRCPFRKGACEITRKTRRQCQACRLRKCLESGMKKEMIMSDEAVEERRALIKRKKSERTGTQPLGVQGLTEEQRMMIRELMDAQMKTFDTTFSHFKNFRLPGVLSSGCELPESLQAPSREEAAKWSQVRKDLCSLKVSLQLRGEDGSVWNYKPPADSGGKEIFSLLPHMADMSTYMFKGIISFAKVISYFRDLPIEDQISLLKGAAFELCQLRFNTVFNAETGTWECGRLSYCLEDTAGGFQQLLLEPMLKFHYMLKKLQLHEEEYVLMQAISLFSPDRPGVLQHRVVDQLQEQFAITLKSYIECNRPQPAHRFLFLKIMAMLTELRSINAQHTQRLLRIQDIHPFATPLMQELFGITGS
PXR:RXRa, sequence (P19793 whole entry, chain 2 of 2): as the sequence (P19793 whole entry, chain 2 of 2) above
VDR:RXRa, sequence (P11473 whole entry, chain 1 of 2): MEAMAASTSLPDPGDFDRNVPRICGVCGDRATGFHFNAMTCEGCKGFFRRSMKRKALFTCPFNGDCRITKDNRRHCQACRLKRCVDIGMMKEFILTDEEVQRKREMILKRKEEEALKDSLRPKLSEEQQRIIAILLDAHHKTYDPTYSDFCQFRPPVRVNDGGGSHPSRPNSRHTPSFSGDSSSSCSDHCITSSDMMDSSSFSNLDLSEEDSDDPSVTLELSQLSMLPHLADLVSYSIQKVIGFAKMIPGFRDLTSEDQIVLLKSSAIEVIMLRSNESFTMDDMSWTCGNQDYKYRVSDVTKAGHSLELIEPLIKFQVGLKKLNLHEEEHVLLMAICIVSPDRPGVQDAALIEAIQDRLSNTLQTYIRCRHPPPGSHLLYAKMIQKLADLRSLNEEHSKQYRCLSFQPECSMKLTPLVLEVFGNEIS
VDR:RXRa, sequence (P19793 whole entry, chain 2 of 2): as the sequence (P19793 whole entry, chain 2 of 2) above
RXRa, sequence (P19793 whole entry): as the sequence (P19793 whole entry, chain 2 of 2) above
LXRb:RXRa, sequence (P55055 whole entry, chain 1 of 2): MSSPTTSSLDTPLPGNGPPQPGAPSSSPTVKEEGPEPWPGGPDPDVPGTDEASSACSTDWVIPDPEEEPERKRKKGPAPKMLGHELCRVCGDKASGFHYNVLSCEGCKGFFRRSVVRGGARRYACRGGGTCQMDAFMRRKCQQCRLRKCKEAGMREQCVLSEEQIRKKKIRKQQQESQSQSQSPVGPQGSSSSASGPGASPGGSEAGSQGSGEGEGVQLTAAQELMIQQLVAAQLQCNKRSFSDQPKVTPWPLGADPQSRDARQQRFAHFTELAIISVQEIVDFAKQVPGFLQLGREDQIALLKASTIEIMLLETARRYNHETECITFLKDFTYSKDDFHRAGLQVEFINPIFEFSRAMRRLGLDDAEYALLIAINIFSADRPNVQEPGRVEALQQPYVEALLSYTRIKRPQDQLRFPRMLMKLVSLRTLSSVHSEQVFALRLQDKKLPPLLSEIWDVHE
LXRb:RXRa, sequence (P19793 whole entry, chain 2 of 2): as the sequence (P19793 whole entry, chain 2 of 2) above
LXRa:RXRa, sequence (Q13133 whole entry, chain 1 of 2): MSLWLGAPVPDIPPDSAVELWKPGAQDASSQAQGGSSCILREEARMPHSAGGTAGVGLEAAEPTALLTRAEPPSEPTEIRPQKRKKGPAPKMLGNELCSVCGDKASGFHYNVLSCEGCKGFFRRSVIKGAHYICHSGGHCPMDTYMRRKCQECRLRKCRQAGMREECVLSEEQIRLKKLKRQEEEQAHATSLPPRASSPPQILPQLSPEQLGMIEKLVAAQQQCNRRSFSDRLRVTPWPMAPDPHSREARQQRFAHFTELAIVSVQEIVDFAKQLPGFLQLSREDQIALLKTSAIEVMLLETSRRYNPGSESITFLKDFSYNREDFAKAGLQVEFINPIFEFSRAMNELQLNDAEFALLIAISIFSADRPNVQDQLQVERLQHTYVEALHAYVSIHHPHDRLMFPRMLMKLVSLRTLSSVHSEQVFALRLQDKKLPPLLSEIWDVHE
LXRa:RXRa, sequence (P19793 whole entry, chain 2 of 2): as the sequence (P19793 whole entry, chain 2 of 2) above
FXR:RXRa, sequence (Q96RI1 whole entry, chain 1 of 2): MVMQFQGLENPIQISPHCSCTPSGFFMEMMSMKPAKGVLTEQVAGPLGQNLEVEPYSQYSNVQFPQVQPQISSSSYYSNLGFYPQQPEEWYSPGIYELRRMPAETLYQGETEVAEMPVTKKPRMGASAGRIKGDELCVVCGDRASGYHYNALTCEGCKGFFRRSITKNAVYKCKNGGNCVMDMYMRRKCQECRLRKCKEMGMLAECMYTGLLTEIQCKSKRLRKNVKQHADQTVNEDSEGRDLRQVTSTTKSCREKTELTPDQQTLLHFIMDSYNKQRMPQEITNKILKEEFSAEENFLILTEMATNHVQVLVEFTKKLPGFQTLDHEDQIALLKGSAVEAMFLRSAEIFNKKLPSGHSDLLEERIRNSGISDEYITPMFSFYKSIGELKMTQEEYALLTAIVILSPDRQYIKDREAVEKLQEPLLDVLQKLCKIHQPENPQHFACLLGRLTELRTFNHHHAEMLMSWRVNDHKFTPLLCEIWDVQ
FXR:RXRa, sequence (P19793 whole entry, chain 2 of 2): as the sequence (P19793 whole entry, chain 2 of 2) above
RARb:RXRa, sequence (P10826 whole entry, chain 1 of 2): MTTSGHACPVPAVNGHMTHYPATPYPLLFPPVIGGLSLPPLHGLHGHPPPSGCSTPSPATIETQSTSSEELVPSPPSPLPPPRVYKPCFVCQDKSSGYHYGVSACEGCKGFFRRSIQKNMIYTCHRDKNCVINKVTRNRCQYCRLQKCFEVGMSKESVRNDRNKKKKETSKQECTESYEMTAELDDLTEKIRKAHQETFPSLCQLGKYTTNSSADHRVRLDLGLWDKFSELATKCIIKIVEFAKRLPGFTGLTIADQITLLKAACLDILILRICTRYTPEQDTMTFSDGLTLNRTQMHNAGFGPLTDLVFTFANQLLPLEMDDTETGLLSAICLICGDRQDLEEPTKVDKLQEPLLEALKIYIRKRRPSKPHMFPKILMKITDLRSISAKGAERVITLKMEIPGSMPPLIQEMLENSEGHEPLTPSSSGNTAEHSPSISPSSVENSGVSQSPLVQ
RARb:RXRa, sequence (P19793 whole entry, chain 2 of 2): as the sequence (P19793 whole entry, chain 2 of 2) above

Binder | binding signal (LXRa:RXRa) | binding signal (PXR:RXRa) | binding signal (VDR:RXRa) | also measured
NRC3_random_hg19_198_o1 (dsDNA) DNA 1: GCAGTTATGTCCACTTGCATAAGTGCAACGTTTGGCGCGATTGACAGCGTAGAATGAAGG DNA 2: CCTTCATTCTACGCTGTCAATCGCGCCAAACGTTGCACTTATGCAAGTGGACATAACTGC | -0.41 PBM z-score against 500 random probes | 0.06 PBM z-score against 500 random probes |  | binding signal (FXR:RXRa): -0.27 PBM z-score against 500 random probes
NRC3_wobSeed75_DR3_A12T_o1 (dsDNA) DNA 1: GCTCTCGGAGGTCACGAAGGTCAGAGCTTTCCAGAGGCGATTGACAGCGTAGAATGAAGG DNA 2: CCTTCATTCTACGCTGTCAATCGCCTCTGGAAAGCTCTGACCTTCGTGACCTCCGAGAGC |  | 6.46 PBM z-score against 500 random probes | 7.51 PBM z-score against 500 random probes | binding signal (RXRa): 8.41 PBM z-score against 500 random probes; binding signal (RARb:RXRa): 5.84 PBM z-score against 500 random probes; binding signal (RARg:RXRa): 7.62 PBM z-score against 500 random probes
NRC3_wobSeed93_DR3_A22C_o1 (dsDNA) DNA 1: GCAGTCAAAGTTCATCTAGGTCACGTAAGATATGCTGCGATTGACAGCGTAGAATGAAGG DNA 2: CCTTCATTCTACGCTGTCAATCGCAGCATATCTTACGTGACCTAGATGAACTTTGACTGC | 6.64 PBM z-score against 500 random probes | 7.03 PBM z-score against 500 random probes | 7.14 PBM z-score against 500 random probes | binding signal (RARb:RXRa): 5.57 PBM z-score against 500 random probes
NRC3_wobSeed143_DR5_G12T_o1 (dsDNA) DNA 1: GCAGAACGAGGTCACGCTGAGTTGATAGCAGAGTAGGCGATTGACAGCGTAGAATGAAGG DNA 2: CCTTCATTCTACGCTGTCAATCGCCTACTCTGCTATCAACTCAGCGTGACCTCGTTCTGC |  | 6.45 PBM z-score against 500 random probes | 6.66 PBM z-score against 500 random probes | binding signal (RXRa): 8.4 PBM z-score against 500 random probes; binding signal (RARb:RXRa): 5.54 PBM z-score against 500 random probes; binding signal (FXR:RXRa): 8.27 PBM z-score against 500 random probes; binding signal (RARg:RXRa): 7.45 PBM z-score against 500 random probes
NRC3_random_hg19_273_o1 (dsDNA) DNA 1: GCTGCAGGGTTTCTACCGAGAAGTCTGCTGTTAGTCGCGATTGACAGCGTAGAATGAAGG DNA 2: CCTTCATTCTACGCTGTCAATCGCGACTAACAGCAGACTTCTCGGTAGAAACCCTGCAGC |  | -0.66 PBM z-score against 500 random probes |  | binding signal (LXRb:RXRa): -0.41 PBM z-score against 500 random probes; binding signal (RARb:RXRa): -0.17 PBM z-score against 500 random probes; binding signal (RARg:RXRa): -0.66 PBM z-score against 500 random probes
NRC3_wobSeed85_DR3_G24C_o1 (dsDNA) DNA 1: GCCGTCCAAGGTCAGAGAGGTCACTGAATGCCGAGTGCGATTGACAGCGTAGAATGAAGG DNA 2: CCTTCATTCTACGCTGTCAATCGCACTCGGCATTCAGTGACCTCTCTGACCTTGGACGGC |  | 6.76 PBM z-score against 500 random probes | 7.9 PBM z-score against 500 random probes | 
NRC3_wobSeed119_DR4_G12T_o1 (dsDNA) DNA 1: GCGGAACGAGGTCATTCGAGTTGATAGCATGGCGATGCGATTGACAGCGTAGAATGAAGG DNA 2: CCTTCATTCTACGCTGTCAATCGCATCGCCATGCTATCAACTCGAATGACCTCGTTCCGC |  | 6.69 PBM z-score against 500 random probes | 6.76 PBM z-score against 500 random probes | binding signal (FXR:RXRa): 7.77 PBM z-score against 500 random probes
NRC3_wobSeed89_DR3_G16C_o1 (dsDNA) DNA 1: GCCTATGTAGGTTAACGGGGTCATTCAGTTTGAAAGGCGATTGACAGCGTAGAATGAAGG DNA 2: CCTTCATTCTACGCTGTCAATCGCCTTTCAAACTGAATGACCCCGTTAACCTACATAGGC |  | 6.67 PBM z-score against 500 random probes | 8.07 PBM z-score against 500 random probes | 
NRC3_wobSeed121_DR5_A19G_o1 (dsDNA) DNA 1: GCCAAACTAGGTCACCGGGAGGTCAAAGTCCGCATGGCGATTGACAGCGTAGAATGAAGG DNA 2: CCTTCATTCTACGCTGTCAATCGCCATGCGGACTTTGACCTCCCGGTGACCTAGTTTGGC |  | 6.61 PBM z-score against 500 random probes | 6.81 PBM z-score against 500 random probes | 
NRC3_wobSeed137_DR5_C19G_o1 (dsDNA) DNA 1: GCATATGTAGGTTACATCGGGGTCATTCAGGCTATGGCGATTGACAGCGTAGAATGAAGG DNA 2: CCTTCATTCTACGCTGTCAATCGCCATAGCCTGAATGACCCCGATGTAACCTACATATGC |  | 6.55 PBM z-score against 500 random probes | 6.54 PBM z-score against 500 random probes | 
NRC3_wobSeed120_DR4_T13C_o1 (dsDNA) DNA 1: GCCCGAGTAGGTCACGAGGGGGCATTCAGTGCGAATGCGATTGACAGCGTAGAATGAAGG DNA 2: CCTTCATTCTACGCTGTCAATCGCATTCGCACTGAATGCCCCCTCGTGACCTACTCGGGC |  | 6.39 PBM z-score against 500 random probes | 7.01 PBM z-score against 500 random probes | 
NRC3_wobSeed53_DR2_A17T_o1 (dsDNA) DNA 1: GCCCTTACGGGTCACGTGGTTATAGCACGACGAGCGGCGATTGACAGCGTAGAATGAAGG DNA 2: CCTTCATTCTACGCTGTCAATCGCCGCTCGTCGTGCTATAACCACGTGACCCGTAAGGGC | 3.8 PBM z-score against 500 random probes | 3.42 PBM z-score against 500 random probes |  | 
NRC3_wobSeed34_DR1_G6A_o1 (dsDNA) DNA 1: GCATCAAAAGGTCGAAGGTGAGTATACCCACCCGAAGCGATTGACAGCGTAGAATGAAGG DNA 2: CCTTCATTCTACGCTGTCAATCGCTTCGGGTGGGTATACTCACCTTCGACCTTTTGATGC |  | 3.15 PBM z-score against 500 random probes | 3.23 PBM z-score against 500 random probes | 
NRC3_wobSeed124_DR5_T23G_o1 (dsDNA) DNA 1: GCCCTACTGGGCCATTCAGAGGGCATTGATCATATGGCGATTGACAGCGTAGAATGAAGG DNA 2: CCTTCATTCTACGCTGTCAATCGCCATATGATCAATGCCCTCTGAATGGCCCAGTAGGGC | -0.01 PBM z-score against 500 random probes | 0.42 PBM z-score against 500 random probes |  | 
NRC3_wobSeed45_DR1_A9T_o1 (dsDNA) DNA 1: GCTGTCAATGTTCAAAGGTAACGTAAGTATCCACACGCGATTGACAGCGTAGAATGAAGG DNA 2: CCTTCATTCTACGCTGTCAATCGCGTGTGGATACTTACGTTACCTTTGAACATTGACAGC | 0.41 PBM z-score against 500 random probes | 0.4 PBM z-score against 500 random probes |  | 
NRC3_wobSeed13_DR0_A14T_o1 (dsDNA) DNA 1: GCCGTCCAAGGTCTAGGTCAGTGAAAGAGACTCGAAGCGATTGACAGCGTAGAATGAAGG DNA 2: CCTTCATTCTACGCTGTCAATCGCTTCGAGTCTCTTTCACTGACCTAGACCTTGGACGGC |  | 0.19 PBM z-score against 500 random probes |  | binding signal (LXRb:RXRa): 0.12 PBM z-score against 500 random probes
NRC3_random_hg19_142_o1 (dsDNA) DNA 1: GCGGTACTCAGTATGTGAAGAATCATGTTGAGGCAGGCGATTGACAGCGTAGAATGAAGG DNA 2: CCTTCATTCTACGCTGTCAATCGCCTGCCTCAACATGATTCTTCACATACTGAGTACCGC | 0.28 PBM z-score against 500 random probes | 0.04 PBM z-score against 500 random probes |  | 
NRC3_random_hg19_177_o1 (dsDNA) DNA 1: GCATCTTTAGCAAGATACTTCATAGGTACTACTGTGGCGATTGACAGCGTAGAATGAAGG DNA 2: CCTTCATTCTACGCTGTCAATCGCCACAGTAGTACCTATGAAGTATCTTGCTAAAGATGC |  | -0.14 PBM z-score against 500 random probes | 0.37 PBM z-score against 500 random probes | binding signal (LXRb:RXRa): 0.07 PBM z-score against 500 random probes
NRC3_random_hg19_444_o1 (dsDNA) DNA 1: GCGGGTGTGGTCGTGGGCACCTGCAGTCCCAGCTACGCGATTGACAGCGTAGAATGAAGG DNA 2: CCTTCATTCTACGCTGTCAATCGCGTAGCTGGGACTGCAGGTGCCCACGACCACACCCGC |  | -0.37 PBM z-score against 500 random probes |  | binding signal (LXRb:RXRa): 0.06 PBM z-score against 500 random probes; binding signal (RARg:RXRa): -0.64 PBM z-score against 500 random probes
NRC3_random_hg19_388_o1 (dsDNA) DNA 1: GCACAAGTCTACAAACCCTGGGAGAATGAGAAGTGTGCGATTGACAGCGTAGAATGAAGG DNA 2: CCTTCATTCTACGCTGTCAATCGCACACTTCTCATTCTCCCAGGGTTTGTAGACTTGTGC | -0.44 PBM z-score against 500 random probes | -0.52 PBM z-score against 500 random probes |  | 
NRC3_random_hg19_28_o1 (dsDNA) DNA 1: GCCATCTAAAGCCTTGACAGGCTGGGATAGCTGCTTGCGATTGACAGCGTAGAATGAAGG DNA 2: CCTTCATTCTACGCTGTCAATCGCAAGCAGCTATCCCAGCCTGTCAAGGCTTTAGATGGC |  | -0.65 PBM z-score against 500 random probes |  | binding signal (LXRb:RXRa): -1 PBM z-score against 500 random probes
NRC3_random_hg19_277_o1 (dsDNA) DNA 1: GCGGTGGCACACGCATGGAATCCCAGCGCTTTGGGAGCGATTGACAGCGTAGAATGAAGG DNA 2: CCTTCATTCTACGCTGTCAATCGCTCCCAAAGCGCTGGGATTCCATGCGTGTGCCACCGC | -0.75 PBM z-score against 500 random probes | -0.74 PBM z-score against 500 random probes |  | binding signal (RXRa): -0.54 PBM z-score against 500 random probes
NRC3_random_hg19_491_o1 (dsDNA) DNA 1: GCCGCCTTTAGATTGCAGGCTCCTGGAGAGCTGTCTGCGATTGACAGCGTAGAATGAAGG DNA 2: CCTTCATTCTACGCTGTCAATCGCAGACAGCTCTCCAGGAGCCTGCAATCTAAAGGCGGC | -0.82 PBM z-score against 500 random probes | -1.27 PBM z-score against 500 random probes |  | 
